Laboratory results from paper PMC3797442, “Analysis of the role of Arabidopsis class I TCP genes AtTCP7, AtTCP8, AtTCP22, and AtTCP23 in leaf development”.

Tests used:
AtTCP7 = AtTCP7 (Arabidopsis thaliana, UniProt Q9FMX2 1-250); assay: EMSA; LightShift Chemiluminescent EMSA Kit (Pierce), manufacturer's instructions; buffer, salt, pH and temperature not stated; details: protein: recombinant; tags: N-terminal GST (pDEST15); chain copies: 2; label: biotin (both strands); blunt
AtTCP22;AtTCP23 = AtTCP22;AtTCP23 (Arabidopsis thaliana;Arabidopsis …, UniProt Q9C7G4;Q9LQF0 1-375;1-341, |); assay: EMSA; heterodimer; LightShift Chemiluminescent EMSA Kit (Pierce), manufacturer's instructions; buffer, salt, pH and temperature not stated; details: protein: recombinant;recombinant; tags: N-terminal GST (pDEST15);N-terminal GST (pDEST15); copies: 1;1; label: biotin (both strands); blunt
AtTCP7;AtTCP22 = AtTCP7;AtTCP22 (Arabidopsis thaliana;Arabidopsis …, UniProt Q9FMX2;Q9C7G4 1-250;1-375, |); assay: as above; details: protein: recombinant;recombinant; tags: N-terminal GST (pDEST15);N-terminal GST (pDEST15); copies: 1;1; label: biotin (both strands); blunt
AtTCP7;AtTCP23 = AtTCP7;AtTCP23 (Arabidopsis thaliana;Arabidopsis …, UniProt Q9FMX2;Q9LQF0 1-250;1-341, |); assay: as above; details: protein: recombinant;recombinant; tags: N-terminal GST (pDEST15);N-terminal GST (pDEST15); copies: 1;1; label: biotin (both strands); blunt

Measured: binding result

Chain of AtTCP7;AtTCP22 (Q9FMX2 whole entry, chain 1 of 2): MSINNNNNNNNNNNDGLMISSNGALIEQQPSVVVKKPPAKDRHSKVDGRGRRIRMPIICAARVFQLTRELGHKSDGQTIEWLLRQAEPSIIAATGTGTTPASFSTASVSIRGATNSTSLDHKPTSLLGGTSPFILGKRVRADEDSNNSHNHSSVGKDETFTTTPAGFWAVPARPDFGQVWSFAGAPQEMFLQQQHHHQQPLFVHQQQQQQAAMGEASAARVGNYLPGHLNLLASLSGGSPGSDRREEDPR
Chain of AtTCP7;AtTCP22 (Q9C7G4 whole entry, chain 2 of 2): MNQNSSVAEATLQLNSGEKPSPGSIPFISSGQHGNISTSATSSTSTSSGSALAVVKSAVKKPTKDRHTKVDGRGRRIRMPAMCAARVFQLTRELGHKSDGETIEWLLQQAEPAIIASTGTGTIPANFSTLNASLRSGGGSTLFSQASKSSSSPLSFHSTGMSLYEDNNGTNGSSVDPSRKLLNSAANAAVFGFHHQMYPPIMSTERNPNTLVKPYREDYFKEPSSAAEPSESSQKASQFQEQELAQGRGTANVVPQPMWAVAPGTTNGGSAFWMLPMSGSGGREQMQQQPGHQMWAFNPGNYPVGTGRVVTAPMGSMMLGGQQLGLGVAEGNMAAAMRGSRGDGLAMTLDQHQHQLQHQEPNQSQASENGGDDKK
Chain of AtTCP7;AtTCP23 (Q9FMX2 whole entry, chain 1 of 2): as the sequence (Q9FMX2 whole entry, chain 1 of 2) above
Chain of AtTCP7;AtTCP23 (Q9LQF0 whole entry, chain 2 of 2): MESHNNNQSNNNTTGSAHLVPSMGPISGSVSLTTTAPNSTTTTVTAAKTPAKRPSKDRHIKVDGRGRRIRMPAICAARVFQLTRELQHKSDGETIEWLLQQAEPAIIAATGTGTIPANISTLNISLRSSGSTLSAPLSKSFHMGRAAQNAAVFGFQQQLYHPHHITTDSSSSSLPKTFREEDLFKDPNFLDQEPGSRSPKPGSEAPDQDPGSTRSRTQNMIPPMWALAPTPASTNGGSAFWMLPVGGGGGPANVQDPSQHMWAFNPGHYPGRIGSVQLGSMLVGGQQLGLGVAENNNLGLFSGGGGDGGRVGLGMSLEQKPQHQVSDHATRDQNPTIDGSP
Chain of AtTCP7 (Q9FMX2 whole entry): as the sequence (Q9FMX2 whole entry, chain 1 of 2) above
Chain of AtTCP22;AtTCP23 (Q9C7G4 whole entry, chain 1 of 2): as the sequence (Q9C7G4 whole entry, chain 2 of 2) above
Chain of AtTCP22;AtTCP23 (Q9LQF0 whole entry, chain 2 of 2): as the sequence (Q9LQF0 whole entry, chain 2 of 2) above

B1: STM promoter K-box probe, 76 bp (dsDNA)
DNA 1: AACTATCACTATTTAGAATTTTCAATGTGGAAAAGGAAGCTGATTGTTGAAGCATAAATCCCGGGAGACCACTTTT
DNA 2: AAAAGTGGTCTCCCGGGATTTATGCTTCAACAATCAGCTTCCTTTTCCACATTGAAAATTCTAAATAGTGATAGTT
binds: all assays above
